Assay [1] deals with FLAG-Atg16L1 E226R, Q8C0J2-3. Put plainly: GFP-Trap co-immunoprecipitation from mixed lysates, immunoblot quantification. Conditions: parent: est. 2.5; read off a plot.
For assay [2], the target named is endogenous Atg16L1 (HEK293A) (UniProt Q676U5). Put plainly: GFP-Trap, immunoblot quantification. Conditions: parent: est. 0.49; read off a plot. In general terms: A western blot detects proteins with antibodies after separation by electrophoresis.
Assay [3] concerns the target FLAG-Atg16L1 E230R, Q8C0J2-3. Put plainly: GFP-Trap co-immunoprecipitation from mixed lysates, immunoblot quantification. Particulars: parent: est. 2.5; read off a plot.
Assay [4] concerns the target FLAG-Atg16L1 E226R E230R (ERER), Q8C0J2-3. The assay is described as above. Particulars: parent: est. 2.5; read off a plot.

This note sets out measurements from paper PMC4104028.

FLAG-Atg16L1 E226R, Q8C0J2-3, sequence (Q8C0J2 other isoform, or with tags, fused parts or gaps E226R | E226R): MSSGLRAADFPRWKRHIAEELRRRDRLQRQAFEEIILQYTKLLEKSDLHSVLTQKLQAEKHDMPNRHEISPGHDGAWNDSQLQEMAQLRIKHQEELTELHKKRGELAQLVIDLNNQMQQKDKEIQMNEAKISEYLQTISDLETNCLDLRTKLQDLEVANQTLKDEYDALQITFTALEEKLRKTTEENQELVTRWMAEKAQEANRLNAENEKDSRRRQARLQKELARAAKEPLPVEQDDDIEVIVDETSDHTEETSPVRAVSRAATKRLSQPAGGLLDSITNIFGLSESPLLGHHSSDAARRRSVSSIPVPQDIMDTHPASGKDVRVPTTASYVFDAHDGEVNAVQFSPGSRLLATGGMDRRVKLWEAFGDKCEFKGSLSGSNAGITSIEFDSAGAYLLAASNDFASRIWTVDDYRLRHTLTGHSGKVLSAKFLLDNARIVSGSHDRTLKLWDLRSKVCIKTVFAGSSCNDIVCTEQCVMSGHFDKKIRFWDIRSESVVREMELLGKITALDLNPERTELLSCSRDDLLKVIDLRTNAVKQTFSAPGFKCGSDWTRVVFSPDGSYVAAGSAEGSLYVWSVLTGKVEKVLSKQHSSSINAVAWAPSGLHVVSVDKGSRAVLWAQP
FLAG-Atg16L1 E226R E230R (ERER), Q8C0J2-3, sequence (Q8C0J2 other isoform, or with tags, fused parts or gaps E226R | E230R | E226R E230R): as the sequence (Q8C0J2 other isoform, or with tags, fused parts or gaps E226R | E226R) above, with E230R counted along it
FLAG-Atg16L1 E230R, Q8C0J2-3, sequence (Q8C0J2 other isoform, or with tags, fused parts or gaps E230R | E230R): as the sequence (Q8C0J2 other isoform, or with tags, fused parts or gaps E226R | E226R) above, with R226E, E230R counted along it
endogenous Atg16L1 (HEK293A), sequence (Q676U5 whole entry): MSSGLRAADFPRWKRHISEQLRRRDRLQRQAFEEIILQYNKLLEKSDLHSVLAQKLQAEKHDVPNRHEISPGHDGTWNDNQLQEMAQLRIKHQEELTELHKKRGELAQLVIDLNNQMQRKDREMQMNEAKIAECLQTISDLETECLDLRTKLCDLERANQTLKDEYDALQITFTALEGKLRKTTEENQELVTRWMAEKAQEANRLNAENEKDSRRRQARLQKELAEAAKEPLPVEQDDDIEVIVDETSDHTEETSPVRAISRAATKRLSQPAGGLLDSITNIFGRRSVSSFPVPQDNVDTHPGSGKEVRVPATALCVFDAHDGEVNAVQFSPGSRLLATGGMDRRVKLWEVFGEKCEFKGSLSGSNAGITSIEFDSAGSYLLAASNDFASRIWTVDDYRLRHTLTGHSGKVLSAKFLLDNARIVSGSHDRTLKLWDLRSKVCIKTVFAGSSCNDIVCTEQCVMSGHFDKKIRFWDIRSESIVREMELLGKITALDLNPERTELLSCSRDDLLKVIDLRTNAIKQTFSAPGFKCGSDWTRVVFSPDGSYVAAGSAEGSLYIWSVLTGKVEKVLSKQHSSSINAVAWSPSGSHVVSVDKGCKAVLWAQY

Turning to m1; m3 WIPI2b:R125E; Atg16L1:E226R, the response in assay [1] amounted to 0.05. Regarding m1; m3 WIPI2b:R108E; Atg16L1:E226R, the response in assay [1] stood at 0.05. Regarding GFP-WIPI2b FRRG to FTTG, the response in assay [2] worked out at 0.79. m1; m3 WIPI2b:R125E; Atg16L1:E230R: the response in assay [3] was determined as 0.04. Turning to “m1; m3 WIPI2b:R108E; WIPI2b:R125E; Atg16L1:E226R”, in assay [1], the response came to 0.04. Take “m1; m3 WIPI2b:R125E; Atg16L1:E226R; Atg16L1:E230R”: the response in assay [4] is 0.23. With “m1; m3 WIPI2b:R108E; WIPI2b:R125E; Atg16L1:E230R”, the response in assay [3] amounted to 0.05. In the case of “m1; m3 WIPI2b:R108E; Atg16L1:E226R; Atg16L1:E230R”, the response in assay [4] was found to be 0.13. With m1; m3 WIPI2b:R108E; Atg16L1:E230R, the response in assay [3] amounted to 0.87. With “m1; m3 WIPI2b:R108E; WIPI2b:R125E; Atg16L1:E226R; Atg16L1:E230R”, the response in assay [4] was found to be 0.04.
